Source: patent US20180016327A1 (Chugai, published 2018)

What follows are binders tested against T1, human C5 (human, UniProt P01031 19-673; P01031 678-1676, Beta and alpha chains are disulfide-linked and the protein is glycosylated.) (assay: Biacore, captured antibody, pH 7.4, 37 C;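 note: biacore binding response of anti-C5 antibody light chain variants captured on chip with human C5 injected, ACES running buffer containing 1.2 mM CaCl₂, parent light chain antibody set to 100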).
T1 construct: Either in-house recombinant C5 or plasma derived C5 (CALBIOCHEM) was used; also called recombinant human C5; plasma derived human C5

% binding (parent = 100) [%]	Binder
11.8	CFP0015 15L 96F (antibody, V domains shown) VH: QVQLLESGGGLVQPGGSLRLSCAASGFTFSSYAMSWVRQAPGKGLEWVSAISGSGGSTYYADSVKGRFTISRDNSKNTLYLQMNSLRAEDTAVYYCARGDQIWYDQWYYFDMWGQGTLVTVSS VL: DIQMTQSPSSLSASVGDRVTITCRASQSIEDDLAWYQQKPGKAPKLLIYEASNLQSGVPSRFSGSGSGTDFTLTISSLQPEDFATYYCQQYDSSPFTFGQGTKVEIK
96	CFP0015 15L 93R (antibody, V domains shown) VH: QVQLLESGGGLVQPGGSLRLSCAASGFTFSSYAMSWVRQAPGKGLEWVSAISGSGGSTYYADSVKGRFTISRDNSKNTLYLQMNSLRAEDTAVYYCARGDQIWYDQWYYFDMWGQGTLVTVSS VL: DIQMTQSPSSLSASVGDRVTITCRASQSIEDDLAWYQQKPGKAPKLLIYEASNLQSGVPSRFSGSGSGTDFTLTISSLQPEDFATYYCQQYDRSPLTFGQGTKVEIK
10.6	CFP0015 15L 94F (antibody, V domains shown) VH: QVQLLESGGGLVQPGGSLRLSCAASGFTFSSYAMSWVRQAPGKGLEWVSAISGSGGSTYYADSVKGRFTISRDNSKNTLYLQMNSLRAEDTAVYYCARGDQIWYDQWYYFDMWGQGTLVTVSS VL: DIQMTQSPSSLSASVGDRVTITCRASQSIEDDLAWYQQKPGKAPKLLIYEASNLQSGVPSRFSGSGSGTDFTLTISSLQPEDFATYYCQQYDSFPLTFGQGTKVEIK
4.5	CFP0015 15L 94W (antibody, V domains shown) VH: QVQLLESGGGLVQPGGSLRLSCAASGFTFSSYAMSWVRQAPGKGLEWVSAISGSGGSTYYADSVKGRFTISRDNSKNTLYLQMNSLRAEDTAVYYCARGDQIWYDQWYYFDMWGQGTLVTVSS VL: DIQMTQSPSSLSASVGDRVTITCRASQSIEDDLAWYQQKPGKAPKLLIYEASNLQSGVPSRFSGSGSGTDFTLTISSLQPEDFATYYCQQYDSWPLTFGQGTKVEIK
80.4	CFP0015 15L 93N (antibody, V domains shown) VH: QVQLLESGGGLVQPGGSLRLSCAASGFTFSSYAMSWVRQAPGKGLEWVSAISGSGGSTYYADSVKGRFTISRDNSKNTLYLQMNSLRAEDTAVYYCARGDQIWYDQWYYFDMWGQGTLVTVSS VL: DIQMTQSPSSLSASVGDRVTITCRASQSIEDDLAWYQQKPGKAPKLLIYEASNLQSGVPSRFSGSGSGTDFTLTISSLQPEDFATYYCQQYDNSPLTFGQGTKVEIK
53.1	CFP0015 15L 94T (antibody, V domains shown) VH: QVQLLESGGGLVQPGGSLRLSCAASGFTFSSYAMSWVRQAPGKGLEWVSAISGSGGSTYYADSVKGRFTISRDNSKNTLYLQMNSLRAEDTAVYYCARGDQIWYDQWYYFDMWGQGTLVTVSS VL: DIQMTQSPSSLSASVGDRVTITCRASQSIEDDLAWYQQKPGKAPKLLIYEASNLQSGVPSRFSGSGSGTDFTLTISSLQPEDFATYYCQQYDSTPLTFGQGTKVEIK
78.6	CFP0015 15L 93G (antibody, V domains shown) VH: QVQLLESGGGLVQPGGSLRLSCAASGFTFSSYAMSWVRQAPGKGLEWVSAISGSGGSTYYADSVKGRFTISRDNSKNTLYLQMNSLRAEDTAVYYCARGDQIWYDQWYYFDMWGQGTLVTVSS VL: DIQMTQSPSSLSASVGDRVTITCRASQSIEDDLAWYQQKPGKAPKLLIYEASNLQSGVPSRFSGSGSGTDFTLTISSLQPEDFATYYCQQYDGSPLTFGQGTKVEIK
46.1	CFP0015 15L 94Y (antibody, V domains shown) VH: QVQLLESGGGLVQPGGSLRLSCAASGFTFSSYAMSWVRQAPGKGLEWVSAISGSGGSTYYADSVKGRFTISRDNSKNTLYLQMNSLRAEDTAVYYCARGDQIWYDQWYYFDMWGQGTLVTVSS VL: DIQMTQSPSSLSASVGDRVTITCRASQSIEDDLAWYQQKPGKAPKLLIYEASNLQSGVPSRFSGSGSGTDFTLTISSLQPEDFATYYCQQYDSYPLTFGQGTKVEIK
50.7	CFP0015 15L 96H (antibody, V domains shown) VH: QVQLLESGGGLVQPGGSLRLSCAASGFTFSSYAMSWVRQAPGKGLEWVSAISGSGGSTYYADSVKGRFTISRDNSKNTLYLQMNSLRAEDTAVYYCARGDQIWYDQWYYFDMWGQGTLVTVSS VL: DIQMTQSPSSLSASVGDRVTITCRASQSIEDDLAWYQQKPGKAPKLLIYEASNLQSGVPSRFSGSGSGTDFTLTISSLQPEDFATYYCQQYDSSPHTFGQGTKVEIK
103	CFP0015 15L 96I (antibody, V domains shown) VH: QVQLLESGGGLVQPGGSLRLSCAASGFTFSSYAMSWVRQAPGKGLEWVSAISGSGGSTYYADSVKGRFTISRDNSKNTLYLQMNSLRAEDTAVYYCARGDQIWYDQWYYFDMWGQGTLVTVSS VL: DIQMTQSPSSLSASVGDRVTITCRASQSIEDDLAWYQQKPGKAPKLLIYEASNLQSGVPSRFSGSGSGTDFTLTISSLQPEDFATYYCQQYDSSPITFGQGTKVEIK
49	CFP0015 15L 96P (antibody, V domains shown) VH: QVQLLESGGGLVQPGGSLRLSCAASGFTFSSYAMSWVRQAPGKGLEWVSAISGSGGSTYYADSVKGRFTISRDNSKNTLYLQMNSLRAEDTAVYYCARGDQIWYDQWYYFDMWGQGTLVTVSS VL: DIQMTQSPSSLSASVGDRVTITCRASQSIEDDLAWYQQKPGKAPKLLIYEASNLQSGVPSRFSGSGSGTDFTLTISSLQPEDFATYYCQQYDSSPPTFGQGTKVEIK

Further lines, the binder ahead of its results:

Binder	% binding (parent = 100) [%]
CFP0015 15L 91Q (antibody, V domains shown) VH: QVQLLESGGGLVQPGGSLRLSCAASGFTFSSYAMSWVRQAPGKGLEWVSAISGSGGSTYYADSVKGRFTISRDNSKNTLYLQMNSLRAEDTAVYYCARGDQIWYDQWYYFDMWGQGTLVTVSS VL: DIQMTQSPSSLSASVGDRVTITCRASQSIEDDLAWYQQKPGKAPKLLIYEASNLQSGVPSRFSGSGSGTDFTLTISSLQPEDFATYYCQQQDSSPLTFGQGTKVEIK	96.4
CFP0015 15L 91S (antibody, V domains shown) VH: QVQLLESGGGLVQPGGSLRLSCAASGFTFSSYAMSWVRQAPGKGLEWVSAISGSGGSTYYADSVKGRFTISRDNSKNTLYLQMNSLRAEDTAVYYCARGDQIWYDQWYYFDMWGQGTLVTVSS VL: DIQMTQSPSSLSASVGDRVTITCRASQSIEDDLAWYQQKPGKAPKLLIYEASNLQSGVPSRFSGSGSGTDFTLTISSLQPEDFATYYCQQSDSSPLTFGQGTKVEIK	27.3
CFP0015 15L 92S (antibody, V domains shown) VH: QVQLLESGGGLVQPGGSLRLSCAASGFTFSSYAMSWVRQAPGKGLEWVSAISGSGGSTYYADSVKGRFTISRDNSKNTLYLQMNSLRAEDTAVYYCARGDQIWYDQWYYFDMWGQGTLVTVSS VL: DIQMTQSPSSLSASVGDRVTITCRASQSIEDDLAWYQQKPGKAPKLLIYEASNLQSGVPSRFSGSGSGTDFTLTISSLQPEDFATYYCQQYSSSPLTFGQGTKVEIK	51.3
CFP0015 15L 93D (antibody, V domains shown) VH: QVQLLESGGGLVQPGGSLRLSCAASGFTFSSYAMSWVRQAPGKGLEWVSAISGSGGSTYYADSVKGRFTISRDNSKNTLYLQMNSLRAEDTAVYYCARGDQIWYDQWYYFDMWGQGTLVTVSS VL: DIQMTQSPSSLSASVGDRVTITCRASQSIEDDLAWYQQKPGKAPKLLIYEASNLQSGVPSRFSGSGSGTDFTLTISSLQPEDFATYYCQQYDDSPLTFGQGTKVEIK	45.1
CFP0015 15L 92Q (antibody, V domains shown) VH: QVQLLESGGGLVQPGGSLRLSCAASGFTFSSYAMSWVRQAPGKGLEWVSAISGSGGSTYYADSVKGRFTISRDNSKNTLYLQMNSLRAEDTAVYYCARGDQIWYDQWYYFDMWGQGTLVTVSS VL: DIQMTQSPSSLSASVGDRVTITCRASQSIEDDLAWYQQKPGKAPKLLIYEASNLQSGVPSRFSGSGSGTDFTLTISSLQPEDFATYYCQQYQSSPLTFGQGTKVEIK	59.7
CFP0015 15L 92E (antibody, V domains shown) VH: QVQLLESGGGLVQPGGSLRLSCAASGFTFSSYAMSWVRQAPGKGLEWVSAISGSGGSTYYADSVKGRFTISRDNSKNTLYLQMNSLRAEDTAVYYCARGDQIWYDQWYYFDMWGQGTLVTVSS VL: DIQMTQSPSSLSASVGDRVTITCRASQSIEDDLAWYQQKPGKAPKLLIYEASNLQSGVPSRFSGSGSGTDFTLTISSLQPEDFATYYCQQYESSPLTFGQGTKVEIK	99.8
CFP0015 15L 92T (antibody, V domains shown) VH: QVQLLESGGGLVQPGGSLRLSCAASGFTFSSYAMSWVRQAPGKGLEWVSAISGSGGSTYYADSVKGRFTISRDNSKNTLYLQMNSLRAEDTAVYYCARGDQIWYDQWYYFDMWGQGTLVTVSS VL: DIQMTQSPSSLSASVGDRVTITCRASQSIEDDLAWYQQKPGKAPKLLIYEASNLQSGVPSRFSGSGSGTDFTLTISSLQPEDFATYYCQQYTSSPLTFGQGTKVEIK	74.1
CFP0015 15L 92P (antibody, V domains shown) VH: QVQLLESGGGLVQPGGSLRLSCAASGFTFSSYAMSWVRQAPGKGLEWVSAISGSGGSTYYADSVKGRFTISRDNSKNTLYLQMNSLRAEDTAVYYCARGDQIWYDQWYYFDMWGQGTLVTVSS VL: DIQMTQSPSSLSASVGDRVTITCRASQSIEDDLAWYQQKPGKAPKLLIYEASNLQSGVPSRFSGSGSGTDFTLTISSLQPEDFATYYCQQYPSSPLTFGQGTKVEIK	21.7
CFP0015 15L 91T (antibody, V domains shown) VH: QVQLLESGGGLVQPGGSLRLSCAASGFTFSSYAMSWVRQAPGKGLEWVSAISGSGGSTYYADSVKGRFTISRDNSKNTLYLQMNSLRAEDTAVYYCARGDQIWYDQWYYFDMWGQGTLVTVSS VL: DIQMTQSPSSLSASVGDRVTITCRASQSIEDDLAWYQQKPGKAPKLLIYEASNLQSGVPSRFSGSGSGTDFTLTISSLQPEDFATYYCQQTDSSPLTFGQGTKVEIK	50.7
CFP0015 15L 91R (antibody, V domains shown) VH: QVQLLESGGGLVQPGGSLRLSCAASGFTFSSYAMSWVRQAPGKGLEWVSAISGSGGSTYYADSVKGRFTISRDNSKNTLYLQMNSLRAEDTAVYYCARGDQIWYDQWYYFDMWGQGTLVTVSS VL: DIQMTQSPSSLSASVGDRVTITCRASQSIEDDLAWYQQKPGKAPKLLIYEASNLQSGVPSRFSGSGSGTDFTLTISSLQPEDFATYYCQQRDSSPLTFGQGTKVEIK	2.4
